# Laboratory results taken from patent US20050004013A1 (Scripps Research, published 2005).
# Bridges are numbered along the chain shown (N, C = ends). Where no end group is shown, it is not given here.
# T1: mouse N-cadherin fused to Red Fluorescent Protein, on stably transfected L-cells (mouse, UniProt P15116 160-906)
# T1 sequence (looked up): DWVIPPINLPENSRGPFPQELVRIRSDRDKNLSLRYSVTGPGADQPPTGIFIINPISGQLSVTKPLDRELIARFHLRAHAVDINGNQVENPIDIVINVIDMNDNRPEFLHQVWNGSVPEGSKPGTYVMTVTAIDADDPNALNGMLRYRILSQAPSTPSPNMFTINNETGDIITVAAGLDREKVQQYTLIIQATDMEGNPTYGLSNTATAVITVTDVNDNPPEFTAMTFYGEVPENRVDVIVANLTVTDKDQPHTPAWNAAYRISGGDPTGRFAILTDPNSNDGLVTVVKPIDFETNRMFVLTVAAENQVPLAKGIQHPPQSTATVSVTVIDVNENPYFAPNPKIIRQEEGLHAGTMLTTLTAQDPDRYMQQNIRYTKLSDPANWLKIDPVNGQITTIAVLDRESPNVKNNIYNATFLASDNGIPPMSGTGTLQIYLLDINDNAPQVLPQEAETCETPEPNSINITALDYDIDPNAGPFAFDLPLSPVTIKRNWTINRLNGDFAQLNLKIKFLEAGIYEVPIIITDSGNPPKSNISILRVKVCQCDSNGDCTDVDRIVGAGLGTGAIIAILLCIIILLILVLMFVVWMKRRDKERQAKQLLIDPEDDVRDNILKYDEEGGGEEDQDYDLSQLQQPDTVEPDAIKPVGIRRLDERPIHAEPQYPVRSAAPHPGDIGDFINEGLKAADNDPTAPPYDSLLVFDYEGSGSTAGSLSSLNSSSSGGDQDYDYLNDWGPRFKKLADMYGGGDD
# T2: mouse R-cadherin fused to Red Fluorescent Protein, on stably transfected L-cells (mouse, UniProt P39038 167-913)
# T2 sequence (looked up): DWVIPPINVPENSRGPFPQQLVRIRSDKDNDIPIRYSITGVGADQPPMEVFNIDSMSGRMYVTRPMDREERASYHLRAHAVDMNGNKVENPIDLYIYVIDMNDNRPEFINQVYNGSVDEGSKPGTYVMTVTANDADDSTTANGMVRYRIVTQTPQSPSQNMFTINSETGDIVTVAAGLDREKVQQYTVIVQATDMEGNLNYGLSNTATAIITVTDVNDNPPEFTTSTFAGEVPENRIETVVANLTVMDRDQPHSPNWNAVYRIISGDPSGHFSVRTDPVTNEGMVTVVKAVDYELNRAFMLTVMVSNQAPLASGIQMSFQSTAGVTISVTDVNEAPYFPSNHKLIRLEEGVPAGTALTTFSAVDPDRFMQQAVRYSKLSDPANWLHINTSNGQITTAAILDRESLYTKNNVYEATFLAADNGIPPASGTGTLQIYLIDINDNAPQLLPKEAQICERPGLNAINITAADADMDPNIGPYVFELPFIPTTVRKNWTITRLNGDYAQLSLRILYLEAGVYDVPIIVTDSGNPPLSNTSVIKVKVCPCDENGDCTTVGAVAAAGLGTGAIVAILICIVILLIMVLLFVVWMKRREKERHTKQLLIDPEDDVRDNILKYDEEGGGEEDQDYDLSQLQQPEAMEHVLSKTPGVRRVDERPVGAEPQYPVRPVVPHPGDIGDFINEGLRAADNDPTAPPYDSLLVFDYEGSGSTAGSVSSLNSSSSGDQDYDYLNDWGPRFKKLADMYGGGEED
# Columns and labels:
# [1] = target: T1, mouse N-cadherin fused to Red …; assay: cell-based or functional assay
# [2] = target: T2, mouse R-cadherin fused to Red …; assay: cell-based or functional assay
Binder,IC50 of inhibition of N-cadherin mediated L-cell aggregation [1],IC50 of inhibition of R-cadherin mediated L-cell aggregation [2],IC50 of inhibition of R-cadherin mediated L-cell adhesion (aggregation) [2],effectiveness relative to cyclic IDS in the aggregation assay [2]
"CHAVC (disulfide 1-5) [cyclic HAV peptide (CHAVC, SEQ ID NO: 20)]",150 to 200 µM,150 to 200 µM,,
IDSMSGR (not fully specified) [IDSMSGR (SEQ ID NO: 2)],,,~900 µM,~3 fold lower
CINPC (disulfide 1-5; not fully specified) [cyclic CINPC (SEQ ID NO: 9)],< 300 µM,,,
CIDSC (disulfide 1-5; not fully specified) [cyclic CIDSC (SEQ ID NO: 8)],,~300 µM,,
